# Measurements reported in paper PMC12377726 (Proceedings of the National Academy of Sciences of the …, 2025).
# Positions count from the first letter of the chain named.
# B1: G001_gp1_V08_VRC01c_139 (antibody, V domains shown)
# VH: QVQLVQSGAEVKKPGASVKVSCKASGYTFTGSYMHWVRQAPGQGLEWMGWINPNSGGTNYAQKFQGRVTLTRDTSISTAYMELTRLRSDDTTVFYCATSRSGDWYFDLWGRGTLVTVSS
# VL: EIVLTQSPGTLSLSPGERATLSCRASQSASSSYLAWYQQKPGQAPRLLIYGASSRATGIPDRFSGSGSGTDFTLTISRLEPEDFAMYYCQQYETFGQGTKLEIK
# B2: G001_gp1_V08_VRC01c_140 (antibody, V domains shown)
# VH: QVQLVQSGAEVKMPGTSVKVSCKASGYTFTDYYMHWVRQAPGQGLEWMGWINPNSGGTNYEQRFQGRVTMTRDTSISTAYMDLRRLRSDDTAVYYCATSLVETSTHWAFDLWGQGTMVTVSS
# VL: DFQMTQSPSTLSASVGDRVTITCRTSQSFSTWLAWYQQKPGKAPKLLIYEASSLQSGVPSRFSGSGSGTEFTLTISSLQPDDLATYYCQQYETFGQGTKVAIK
# B3: G001_gp1_V08_VRC01c_141 (antibody, V domains shown)
# VH: QVQLVQSGAEVKKPGASVKVSCKASGYSFTDYYMHWVRQAPGQGLEWMGWINPNSGGSNYAQKFQGRVTMTRDSFISTAYMELSRLRSDDTAVYYCAYYDSGTYRYWGQGTLVTVSS
# VL: B2 VL with F2I, T25A, F29I, T31S, Y36F, E50K, Q55E, L83F, A101E
# B4: G001_gp1_V08_VRC01c_142 (antibody, V domains shown)
# VH: QVQLVQSGAEVKKPGASVKVSCKASGYTFTGDYMHWVRQAPGQGLEWMGWINPNSGGTNYAQKFQGWVTMTRDTSISTAYMEVRLRSDDTAVYYCARAGYSSSWGFGFWGQGTLVTVSS
# VL: QSVLTQPPSVSGAPGERVTISCTGSSSNIGAGYDVHWYQQLPGTAPKLLIFGTSNRPSGVPDRFSGSKSGTSASLAITGLQAEDEADYYCQSYEFFGGGTKLTVL
# B5: G001_gp1_V08_VRC01c_143 (antibody, V domains shown)
# VH: QVQLVQSGAEVRKPGASVKVSCKASGFTFSDYYIHWVRQAPGQGLEWMGWINPNSGGTNYARKFQGRVTMTRDRSISTAYMELSRLRSDDTAVYYCARGLHTSGWYFAFWGQGTLVTVSS
# VL: DIQMTQSPSSLSASVGDRVTITCQARQDTSNYLHWYQQKPGKAPKLLIYDASKLEPGVPSRFSGSGSGTDFTFTISNLQPEDIGTYYCQQYEAFGGGTKVEIK
# B6: G001_gp1_V08_VRC01c_144 (antibody, V domains shown)
# VH: QVQLVQSGAEVKKPGASVKVSCKASGYTFSGHYMHWVRQAPGQGLEWMGWINPNSGGTNYAQKFQGRVTMTRDTSISSAYMELSRLRSDDTAVYYCATHTGSGSSWSFDSWGQGTLVTVSS
# VL: DIQMTQSPSSLSASVGDRVTITCQASQDISNYLNWYQQKPGKAPKLLIYDASNLETGVPSRFSGSGSGTDFTFTISSLQPEDIATYYCQQYEYFGQGTRLEIK
# B7: G001_gp1_V08_VRC01c_145 (antibody, V domains shown)
# VH: QVQLVQSGAEVKKPGASVKVSCRASGYTFTAYYIHWVRQAPGQGLEWMGWINPNSGGTNYAQKFQGRVTMTRDTSISTAYMELRRLRSDDTAVYYCARRFVSSGYYYAYWGQGTLVTVSS
# VL: B1 VL with A29V, I49F, M86I, Q91H, L101V
# B8: G001_gp1_V08_VRC01c_146 (antibody, V domains shown)
# VH: QVQLVQSGAEVKKPGASVKVSCKASGYTFTDYYMYWVRQAPGQGLEWMGWINPNSGGTNYAQKFQGRVTMTRDTSITTAYMEVRRLRSDDTAMYYCARRPNPYSGYDFNAFDIWGQGTMVTVSS
# VL: DIQMTQSPSTLSASVGDRVTITCRASQSISNWLAWYQQKPGKAPKLLIYKTSNLEGGVPSRFSGSGSGTEFTLTISSLQPDDLATYYCQQYEMFGQGTKVEIK
# B9: G001_gp1_V08_VRC01c_147 (antibody, V domains shown)
# VH: QVQLVQSGAEVKQPGASVKVSCKASGYTFTGYYIHWIRQAPGQGLEWMGWINPKSGGTNYARNFQGRVTMTRDTSISTSYLLLSRLRSDDTAVYYCFRGAEGWLLKYWGQGTLVTVSS
# VL: B6 VL with Y87F, Q90H, Y93F, Q96P, R99K, L100V, E101D
# B10: G001_gp1_V08_VRC01c_149 (antibody, V domains shown)
# VH: QVQLVQSGAEVKKPGASVKVSCKTSGYTFTDYYMHWVRQAPGQGLEWMGWINPNSGGTNYAQKFQGRVTMTRDTSIRTVYMELSWLRSDDTAVFYCARHYRSSGWDFDYWGQGTLVTVSS
# VL: DIVLTQSPDSLTVSLGERATINCKSSPSGLYSSNNKNYLTWYQQKPGQPPKLLIYWASTRESGVPDRFSGSGSGTDFTLTISSLQAEDVAVYYCQQYETFGGGTKVEIK
# B11: G001_gp1_V08_VRC01c_151 (antibody, V domains shown)
# VH: QVQLVQSGAEVKKPGASVKVSCKASGYTFTDYYMHWVRQTPGQGLEWMGWMNPKSGGTNYALQFQGRVTMTRDTSISTAYMELSRLRSDDTAIYYCATKAYTNRAFDIWGQGTMVTVSS
# VL: EIVLTQSPGTLSLSPGERATLSCRASQSVNSNSLAWYQQKPGQAPRLLIFAAYTRATGIPDRFSGSGSGTDFTLTISRLEPEDFAVYYCQQYDTFGQGTKVEIK
# B12: G001_gp1_V08_VRC01c_153 (antibody, V domains shown)
# VH: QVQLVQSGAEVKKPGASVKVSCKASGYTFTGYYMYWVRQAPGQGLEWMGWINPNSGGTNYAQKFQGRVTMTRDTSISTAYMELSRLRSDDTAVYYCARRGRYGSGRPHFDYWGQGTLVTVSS
# VL: DIQMTQSPSSLSASVGDRVTITCQATQDISNYLNWYQHKPGKAPKLLIYDASTLVTGVPSRFSGSGYGTDFTFTISSLQPEDIATYYCQEYLLFGGGTKVEIK
# B13: G001_gp1_V08_VRC01c_158 (antibody, V domains shown)
# VH: QVQLVQSGAEVKKPGASVKVSCKASGYTFTDYYMHWVRQAPGQGLEWMGWLNPNSGGTNYAQKFQDWVTMTRDTSIRTAYLELSRLKLDDTAIYYCARRIDYLDAFDIWGQGTMVTVSS
# VL: B1 VL with A29V, S31R, S32R, P41T, M86V, T94M, L101V
# B14: G001_gp1_V08_VRC01c_2021-0052 (antibody, V domains shown)
# VH: QVQLVQSGAEVKKPGASVKVSCKASGHTFSGYYMHWVRQAPGQGLEWMGWINPNSGGTNYAQKFQGRVTMTRDTSISTAYMELSRLRTYDTAVYYCARAYSSGWRFGWGQGTMVTVSS
# VL: B6 VL with S30T, N31K, K42Q, D70Y, E92D, Y93N, Q96G, R99K, L100V
# B15: G001_gp1_V08_VRC01c_2021-0053 (antibody, V domains shown)
# VH: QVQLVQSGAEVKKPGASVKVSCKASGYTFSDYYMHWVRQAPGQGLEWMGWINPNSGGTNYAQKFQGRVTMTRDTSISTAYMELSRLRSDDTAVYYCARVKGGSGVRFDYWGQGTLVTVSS
# VL: B6 VL with P59T, E92V, Y93T, Q96G, R99K, L100V
# B16: G001_gp1_V08_VRC01c_2021-0055 (antibody, V domains shown)
# VH: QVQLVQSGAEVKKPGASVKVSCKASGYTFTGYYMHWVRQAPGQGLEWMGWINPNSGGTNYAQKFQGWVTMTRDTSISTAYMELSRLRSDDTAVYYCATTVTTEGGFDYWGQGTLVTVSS
# VL: QSALTQPPSASGSPGQSVTISCTGTSSDVGGYNYVSWYQQHPGKAPKLMIYEVSKRPSGVPDRFSGSKSGNTASLTVSGLQAEDEADYYCSSYEVFGTGTKVTVL
# B17: G001_gp1_V08_VRC01c_2021-0056 (antibody, V domains shown)
# VH: QVQLVQSGAEVKKPGASVTVSCKASGYTFTGYYMHWVRQAPGQGLEWMGWINPNSGGTNYAQKFQDWVTMTRDTSISTAYMELSRLRSDDTAVYYCATALGGSPGRIWSMDVWGQGTTVTVSS
# VL: B16 VL with P8A, A10V, V18I, Y32S, M49L, E52D, K55N, P61S, D62S, V77I
# B18: G001_gp1_V08_VRC01c_2021-0057 (antibody, V domains shown)
# VH: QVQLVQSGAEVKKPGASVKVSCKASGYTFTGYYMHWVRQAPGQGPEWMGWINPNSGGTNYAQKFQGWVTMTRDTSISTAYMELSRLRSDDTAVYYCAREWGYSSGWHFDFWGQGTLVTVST
# VL: EIVLTQSPGSLSLSPGERATLSCRASQSGSSRYLAWYQQKPGQAPRLLIYGASNRATGIPNRFSGSGSGTDFVLTISRLEPEDFAVYYCQQYESFGPGTKVDIK
# B19: G001_gp1_V08_VRC01c_2021-0059 (antibody, V domains shown)
# VH: QAQLMQSGAEVKKPGASVKVSCKASGYTFTDYYMHWVRQAPGQGLEWMGWINPNSGGTNYAQKFQGWVTMTRDTSISTAFMELSRLRSDDTAVYFCATTNRYTSTWLFDYWGQGTLVTVSS
# VL: B1 VL with A29V, S54N, M86V, T94S
# B20: G001_gp1_V08_VRC01c_2021-0060 (antibody, V domains shown)
# VH: QVQLVQSGAEAKKPGASVKVSCKASGYTFTGYYMHWVRQAPGQGLEWMGWINPNSGGTNYAQKFQDWVTMTRDTSISTAYMELNRLRSDDTAVYYCATTGGTAVTAAHRWYFDLWGRGTLVTVSS
# VL: B1 VL with E17D, A29V, S53A, G69E, F84S, M86V, Q91H, T94G, K100R
# B21: G001_gp1_V08_VRC01c_2021-0062 (antibody, V domains shown)
# VH: QVQLVQSGAEVKKPGASVKVSCKASGYTFTGYYIHWVRQAPGQGLEWMGWINPNSGGTNYAQEFQDWVTMTRDTSISTAYMELSRLSSDDTAVFYCARAKYYDAWSGYYFDFWGQGTLVTVSS
# VL: DIQMTQAPSTLSASVGDRVTITCRASETTSSWVAWYQQKPGKAPKVLIYDASSLQSGVPSRFSGSGSGTEFTLTISSLQPDDFATYYCQQYNTFGGGTKVEIK
# B22: G001_gp1_V08_VRC01c_2021-0063 (antibody, V domains shown)
# VH: QVHLVQSGAEVKKPGASVKVSCKASGYTFTGYYMHWVRQAPGQGLEWMGWINPNSGGTNYAQKFQGRVTVTRDTSISTAYMELSRLRSDDTAVYYCATQTHSSGWFVGNNWHFDLWGPGTLVTVSS
# VL: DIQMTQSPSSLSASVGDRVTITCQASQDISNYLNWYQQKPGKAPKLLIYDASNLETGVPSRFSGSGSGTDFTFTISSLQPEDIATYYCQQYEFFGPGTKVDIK
# B23: G001_gp1_V08_VRC01c_2021-0065 (antibody, V domains shown)
# VH: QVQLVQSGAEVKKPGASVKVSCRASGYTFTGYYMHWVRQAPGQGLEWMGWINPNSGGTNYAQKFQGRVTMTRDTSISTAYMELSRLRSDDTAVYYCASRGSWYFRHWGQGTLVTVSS
# VL: B6 VL with S26R, Q27H, N31K, N53D, E92D, Y93S, Q96G, L100V
# B24: G001_gp1_V08_VRC01c_2021-0066 (antibody, V domains shown)
# VH: QVQLVQSGAEVKKPGASVKVSCKASGYTFTGYYMHWVRQAPGQGLEWMGWINPNSGGTNYALKFQDWVTMTRDTSISTVYMELSRLRYDDTAVYYCARVNGDYGWNFDLWGRGTPVTVSS
# VL: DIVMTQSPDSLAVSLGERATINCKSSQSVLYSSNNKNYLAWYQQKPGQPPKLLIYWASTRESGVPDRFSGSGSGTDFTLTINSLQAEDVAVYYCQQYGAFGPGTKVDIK
# B25: G001_gp1_V08_VRC01c_2021-0068 (antibody, V domains shown)
# VH: QVQLVQSGAEVKKPGASVKVSCKASGYTFTGYYLHWVRQAPGQGLEWMGWINPNSGGTNYAQKFQGWVTMTRTTSISTAYLELSRLRSDDTAVYYCARSVYFDSSGFYYGYWGQGTLVTVSS
# VL: B8 VL with N31S, T51A, N53S, G56S, T74S, L83F, M93T
# B26: G001_gp1_V08_VRC01c_2021-0069 (antibody, V domains shown)
# VH: QVQLVQSGAEVKKPGASVKVSCKASGYTFTDYYIHWVRQAPGQGLEWMGWINPNSGGTNYAQKFQDWVTMTRDTSVGTAYMELSRLRSDDTAVYYCARGIWSSWHFDVWGRGTLVTVPS
# VL: B8 VL with M4V, W32S, K45N, T51A, N53I, G56S, L83F, M93T, I102V, K103T
# Molecular target: eOD-GT8 (engineered outer domain germline-targeting version 8), monomer (HIV-1 gp120 engineered outer domain, …)
row,Binder,binding result
1,B1,binds
2,B2,binds
3,B3,binds
4,B4,binds
5,B5,binds
6,B6,binds
7,B7,binds
8,B8,binds
9,B9,binds
10,B10,binds
11,B11,binds
12,B12,binds
13,B13,binds
14,B14,binds
15,B15,binds
16,B16,binds
17,B17,binds
18,B18,binds
19,B19,binds
20,B20,binds
21,B21,binds
22,B22,binds
23,B23,binds
24,B24,binds
25,B25,binds
26,B26,binds
